Measurements as given in US20260242478A1 (published 2026).
Where no end group is shown, it is not given here.

B1: Phage-3157 (peptide)
peptide: QMPMCRPAWMCMGF
modifications: cysteine pairing not given here; also: fused to phage pIII, orientation and linker not given here
B2: Phage-3166 (peptide)
peptide: LVRVCTPMWMCQGF
modifications: cysteine pairing not given here; also: fused to phage pIII, fusion site not given here
B3: Phage-3165 (peptide)
peptide: NVHYCVPAWMCNGF
modifications: cysteine pairing not given here; also: fused to phage pIII, fusion site not given here
B4: Phage-3147 (peptide)
peptide: FEMFCIPAWMCSGL
modifications: cysteine pairing not given here; also: fused to phage pIII, orientation and linker not given here
notes: Clonal phage of the Peptide-180 library, tested as crude supernatant; not shown: fused to pIII of the bacteriophage
B5: Phage-3155 (peptide)
peptide: VSSMCKPAWMCSGF
modifications: cysteine pairing not given here; also: fused to phage pIII, orientation and linker not given here
notes: as for B4
B6: Phage-3162 (peptide)
peptide: ETALCRPLWMCDWL
modifications: cysteine pairing not given here; also: fused to phage pIII, fusion site not given here
B7: Phage-3161 (peptide)
peptide: NHVQCVPNWMCSGF
modifications: cysteine pairing not given here; also: fused to phage pIII, fusion site not given here
B8: Phage-3146 (peptide)
peptide: GPIMCQPRWMCEGF
modifications: cysteine pairing not given here; also: fused to phage pIII, orientation and linker not given here
notes: as for B4
B9: Phage-3149 (peptide)
peptide: LLPACKPTWMCTGL
modifications: cysteine pairing not given here; also: fused to phage pIII, orientation and linker not given here
notes: as for B4
B10: Phage-3170 (peptide)
peptide: EVKFCKPAWMCTGF
modifications: cysteine pairing not given here; also: fused to phage pIII, fusion site not given here
B11: Phage-3156 (peptide)
peptide: IQVMCRPAWMCSGF
modifications: cysteine pairing not given here; also: fused to phage pIII, orientation and linker not given here
notes: as for B4
B12: Phage-3145 (peptide)
peptide: IERSCTPSWMCHGF
modifications: cysteine pairing not given here; also: fused to phage pIII, orientation and linker not given here
notes: as for B4
B13: Phage-3160 (peptide)
peptide: LALRCEPSWMCLGF
modifications: cysteine pairing not given here; also: fused to phage pIII, orientation and linker not given here
B14: Phage-3153 (peptide)
peptide: DMSLCKPPWMCFGF
modifications: cysteine pairing not given here; also: fused to phage pIII, orientation and linker not given here
notes: as for B4
B15: Phage-3148 (peptide)
peptide: AEYMCIPSWMCHGM
modifications: cysteine pairing not given here; also: fused to phage pIII, orientation and linker not given here
notes: as for B4
B16: Phage-3163 (peptide)
peptide: DIHLCTPNWMCSGF
modifications: cysteine pairing not given here; also: fused to phage pIII, fusion site not given here
B17: Phage-3152 (peptide)
peptide: WDQWCVPKWMCQGF
modifications: cysteine pairing not given here; also: fused to phage pIII, orientation and linker not given here
notes: as for B4
B18: Phage-3164 (peptide)
peptide: MDKICSPMWMCLGF
modifications: cysteine pairing not given here; also: fused to phage pIII, fusion site not given here
B19: Phage-3158 (peptide)
peptide: IVPYCMPQWMCSGF
modifications: cysteine pairing not given here; also: fused to phage pIII, orientation and linker not given here
B20: Phage-3154 (peptide)
peptide: PWIVCKPAWMCTGF
modifications: cysteine pairing not given here; also: fused to phage pIII, orientation and linker not given here
notes: as for B4
B21: Phage-3159 (peptide)
peptide: WMAMCKPVWMCEGF
modifications: cysteine pairing not given here; also: fused to phage pIII, orientation and linker not given here
B22: Phage-3169 (peptide)
peptide: VEKLCKPEWMCMGF
modifications: cysteine pairing not given here; also: fused to phage pIII, fusion site not given here
B23: Phage-3167 (peptide)
peptide: TYPKCIPPWMCTGF
modifications: cysteine pairing not given here; also: fused to phage pIII, fusion site not given here
B24: Phage-3144 (peptide)
peptide: HLPRCEPAWMCHGF
modifications: cysteine pairing not given here; also: fused to phage pIII, orientation and linker not given here
notes: as for B4
B25: Phage-3150 (peptide)
peptide: DAPLCKPQWMCSGF
modifications: cysteine pairing not given here; also: fused to phage pIII, orientation and linker not given here
notes: as for B4
B26: Phage-3168 (peptide)
peptide: ADWLCRPAWMCEGL
modifications: cysteine pairing not given here; also: fused to phage pIII, fusion site not given here
B27: Phage-3151 (peptide)
peptide: FPRLCEPLWMCKGF
modifications: cysteine pairing not given here; also: fused to phage pIII, orientation and linker not given here
notes: as for B4

How the values were obtained:
PSMA Fab [1] = target: T1, PSMA Fab; assay: clonal phage ELISA on captured PSMA Fab pre-incubated with PSMA antigen as competitor;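 further: crude clonal phage supernatants added to wells without washing away the PSMA competitor, bound phage detected by HRP-conjugated anti-M13 antibody, reference wells received blocking buffer only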
T1 construct: also called Anti-PSMA Fab; 006 PSMA Fab
Description: (§1) Clonal phage were harvested as crude supernatants and screened via standard ELISAs. […] Prior to the addition of clonal phage. wells were incubated with blocking buffer and PSMA antigen or blocking buffer alone. Without washing or aspirating, clonal phage supernatants were then added to the wells and incubated for a short time. Wells were then washed followed by detection of bound phage using a horse radish conjugated anti-M13 antibody.

PSMA Fab [2] = target: T1, PSMA Fab; assay: clonal phage ELISA on biotinylated PSMA Fab captured on neutravidin, anti-M13 HRP detection;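 further: crude clonal phage supernatants added to wells pretreated with PSMA antigen in blocking buffer or with blocking buffer only, then briefly incubated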
Description: as §1

PSMA Fab [3] = target: T2, PSMA Fab; assay: clonal phage ELISA on biotinylated PSMA Fab captured on neutravidin plates, anti-M13 HRP detection, blocking buffer alone
T2 construct: also called Anti-PSMA Fab; 006 PSMA Fab
Description: as §1

PSMA Fab [4] = target: T2, PSMA Fab; assay: clonal phage ELISA on captured PSMA Fab pre-incubated with PSMA antigen as competitor, anti-M13 HRP detection;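 further: crude clonal phage supernatants tested by ELISA, wells first treated with blocking buffer plus PSMA antigen, bound phage read out via HRP-linked anti-M13 antibody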
Description: as §1

Row | Binder | Phage binding ELISA signal, Anti-PSMA Fab in presence of PSMA (PSMA Fab [1]) | Phage binding ELISA signal, Anti-PSMA Fab (PSMA Fab [2]) | Phage binding ELISA signal, Anti-PSMA Fab (PSMA Fab [3]) | phage binding ELISA signal (Anti-PSMA Fab, PSMA antigen present) (PSMA Fab [4])
1 | B1 | 0.105 | 2.04 | – | –
2 | B2 | 0.058 | 2.03 | – | –
3 | B3 | 0.163 | 2.03 | – | –
4 | B4 | – | – | 2.05 | 0.0821
5 | B5 | – | – | 2.04 | 0.0629
6 | B6 | 0.0692 | 2.03 | – | –
7 | B7 | 0.138 | 2.03 | – | –
8 | B8 | – | – | 2.05 | 0.0807
9 | B9 | – | – | 2.04 | 0.135
10 | B10 | 0.0863 | 2.02 | – | –
11 | B11 | – | – | 2.04 | 0.0959
12 | B12 | – | – | 2.05 | 0.072
13 | B13 | 0.112 | 2.03 | – | –
14 | B14 | – | – | 2.04 | 0.0792
15 | B15 | – | – | 2.05 | 0.0861
16 | B16 | 0.0738 | 2.03 | – | –
17 | B17 | – | – | 2.04 | 0.197
18 | B18 | 0.0702 | 2.03 | – | –
19 | B19 | 0.107 | 2.04 | – | –
20 | B20 | – | – | 2.04 | 0.118
21 | B21 | 0.163 | 2.04 | – | –
22 | B22 | 0.0909 | 2.02 | – | –
23 | B23 | 0.115 | 2.03 | – | –
24 | B24 | – | – | 2.05 | 0.0904
25 | B25 | – | – | 2.04 | 0.0854
26 | B26 | 0.0589 | 2.02 | – | –
27 | B27 | – | – | 2.04 | 0.0987
